From PMC7659345, “Viral rhodopsins 1 are an unique family of light-gated cation channels” (Nature Communications, 2020)

B1: VirChR1 (viral channelrhodopsin 1, viral rhodopsin group 1) (uncultured virus (Tara Oceans metagenomic contig TARA-146-SRF-0.22-3-C376786_1)) (protein)
chain: MKDKELLLLTVKISLVVQIISGIVSSFGIFIKLAPKDYILRDILIIETVVQIVEAIFYVYIYLSLESLDNNVITSRRYFDWVITTPIMLISTILFMRYNIRILYDKSKNKQNRQNKPKSNLTTYNVIKNNKDTIIKIVIGNFIMLCFGYLGEVDILSKTISIPIGFIFFFYVFYLIWREFGSYTQQNQILFWVLFIVWGLYGVSACLPVLQKNICYNILDIISKNFYGLYIFYYIYQHRLVV
B2: OLPVR1 (viral rhodopsin group 1, viral channelrhodopsin) (Organic Lake phycodnavirus) (protein)
chain: MDNIIMTAYISIFVQIITAIISVYGLFIPLNFKDIILREILILELIVQIIEFIFYIWLIITLQSINEDITYVRYFDWVLTTPVMLLTTVYFFEYMNSDDGIRKKEINDRDYVYLFYICLSNFFMLLIGYLGETKQINKMLTLFGGSFFLFLTFYLLYVKYTKENWMNYIVFYFMFLVWFLYGFAFMFPFSIKNQMYNILDIVSKNIYSIFIFIVILNQSYKLL

How the values were obtained:
[1] = molecular target: Asp80 (position 80, …); test: UV-vis; conditions: 10 mM citrate, 10 mM MES, 10 mM HEPES, 10 mM MOPS, 10 mM CHES and 10 mM CAPS. The pH was adjusted with HCl or NaOH in steps of 0.5-0.7 units.; Dark (ground) state with all-trans retinal bound; purified, solubilised protein
[2] = molecular target: Asp76 (position 76, …); test: UV-vis; conditions: 10 mM citrate, 10 mM MES, 10 mM HEPES, 10 mM MOPS, 10 mM CHES and 10 mM CAPS. The pH was adjusted with HCl or NaOH in steps of 0.5-0.7 units.; Dark (ground) state with all-trans retinal bound; purified, solubilised protein

Protein | pKa [1] | pKa [2]
B1 | 3.5 | –
B2 | – | 4.8
